Test results taken from paper PMC11621151.

Columns and labels:
Experiment in all cases: SPR
[1] = molecular target: human neonatal Fc receptor (FcRn) (human) (UniProt P55899)
[2] = molecular target: monkey neonatal Fc receptor (FcRn) (monkey) (UniProt Q8SPV9)
[3] = molecular target: mouse neonatal Fc receptor (FcRn) (mouse) (UniProt Q61559)
[4] = molecular target: rabbit neonatal Fc receptor (FcRn) (rabbit)
[5] = molecular target: rat neonatal Fc receptor (FcRn) (rat) (UniProt P13599)

Kd [1]: 8.56 nM | Kd [2]: 14.5 nM | Kd [3]: 0.63 nM | Kd [4]: 310 nM | Kd [5]: 1.89 nM
Substance: Efgartigimod (domain or fragment)
